Where two headings read alike, the source gives them in different places.
Assays:
[1] = target: T1, human GITR expressed on cells (human, UniProt Q9Y5U5 26-241); experiment: flow cytometry (FACS), MFI, CHO cells expressing human GITR
T1 construct: whole, on cells; also called TNFRSF18; CD357
T1 sequence (looked up): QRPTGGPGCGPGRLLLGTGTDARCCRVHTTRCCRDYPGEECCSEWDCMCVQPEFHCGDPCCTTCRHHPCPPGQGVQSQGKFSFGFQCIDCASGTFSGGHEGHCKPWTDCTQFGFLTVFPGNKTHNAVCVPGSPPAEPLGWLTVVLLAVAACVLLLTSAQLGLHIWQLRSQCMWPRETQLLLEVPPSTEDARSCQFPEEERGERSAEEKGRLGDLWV
Method: (§1) Anti-GITR/CD137 bi-specific antibodies were analyzed by FACS for their binding properties to human GITR and/or human CD137 expressed on CHO cells. Briefly, cultured cells were harvested, counted and cell viability was evaluated using the Trypan Blue exclusion method. Viable cells were then adjusted to 2×10⁶ cells per mL in PBS containing 2% BSA. 100 μL of this cell suspension were further aliquoted per well into a V-bottom 96-well plate. […] After incubation for 2 hours at 4° C., cells were centrifuged (3 min, 1000× g), washed with 250 μL/well BSA-containing FACS Stain Buffer, resuspended and incubated for an additional 1 hour at 4° C. with 100 μL/well fluorochrome-conjugated anti-IgG antibody for detection of the bisepecific antibody. Cells were then washed with 250 μL/well BSA-containing FACS Stain Buffer, resuspended in 100 μL/well FACS Stain Buffer, acquired and analyzed using a FACS machine. Binding of the bispecific antibodies to human GITR or human CD137 expressing CHO cells were evaluated and the mean fluorescence intensity is plotted in histograms or dot plots.

[2] = target: T2, human CD137 expressed on cells (human, UniProt Q07011 24-255); experiment: FACS on CHO cells expressing human CD137 (MFI)
T2 construct: whole, on cells; also called 4-1BB; TNFRSF9
Method: as §1

[3] = target: T3, human CD40 expressed on CHO cells (human, UniProt P25942 21-277); experiment: FACS on CHO cells expressing human CD40 (MFI)
T3 construct: whole, on cells
Method: as §1, with “Anti-CD40/CD137” for “Anti-GITR/CD137”, “CD40” for “GITR”, “1000×g),” for “1000× g),”

[4] = target: T2, human CD137 expressed on cells; experiment: FACS on CHO cells expressing human CD137 (MFI); remark: listed apart in the source
Method: as §1, with “Anti-CD40/CD137” for “Anti-GITR/CD137”, “CD40” for “GITR”, “1000×g),” for “1000× g),”

T2 sequence (Q07011 24-255): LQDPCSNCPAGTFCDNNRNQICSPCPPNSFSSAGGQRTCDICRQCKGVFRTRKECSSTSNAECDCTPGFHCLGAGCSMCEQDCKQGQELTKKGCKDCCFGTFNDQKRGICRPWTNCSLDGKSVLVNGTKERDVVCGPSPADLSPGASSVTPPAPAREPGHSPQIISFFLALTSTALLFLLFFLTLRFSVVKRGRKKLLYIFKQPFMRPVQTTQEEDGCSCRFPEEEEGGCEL
T3 sequence (P25942 21-277): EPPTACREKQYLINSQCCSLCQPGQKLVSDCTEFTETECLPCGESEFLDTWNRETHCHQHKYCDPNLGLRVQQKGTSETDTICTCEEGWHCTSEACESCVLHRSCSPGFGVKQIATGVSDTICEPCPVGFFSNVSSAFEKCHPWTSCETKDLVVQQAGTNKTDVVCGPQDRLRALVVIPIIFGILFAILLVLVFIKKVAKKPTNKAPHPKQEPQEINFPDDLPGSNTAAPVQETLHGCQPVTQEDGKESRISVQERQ

B1: TM677 (antibody, human IgG1, kappa, V domains shown)
VH: QVQLQESGPGLVKPSETLSLTCTVSGFSLTSYNVHWIRQPPGKGLEWIGVIWSGVRTDYNSVLKSRVTISVDTSKNQFSLKLSSVTAADTAVYYCARGTYDANYHDVMDAWGQGTMVTVSS
VL: DTVLTQSPATLSLSPGERATLSCRASKSVRTGMHWYQQKPGQAPRLLVYGASNLESGIPARFSGSGSGTDFTLTISSLEPEDFATYFCHQSWNHFTFGQGTKLEIKR
notes: Humanized anti-GITR antibody with VL back mutations; also called humanized LYV392 antibody (VH-1/IgG1 mut, VL-2/kappa)
[1]
  EC50 (read off the curve): ~0.7 µg/mL

B2: TM685 (antibody, human IgG1, kappa, V domains shown)
VH: QVQLQESGPGLVKPSETLSLTCTVSGFSLTSYNVHWIRQPPGKGLEWIGVIWSGVRTDYNSVLKPRVTISVDTSKNQFSLKLSSVTAADTAVYYCARGTYDDNYHDVMDAWGQGTLVTVSS
VL: EIVLTQSPATLSLSPGERATLSCRASKSVRTGMHWYQQKPGQAPRLLIYGASNLESGIPARFSGSGSGTDFTLTISSLEPEDFAVYYCQQSWNHFTFGQGTKLEIKR
notes: Humanized anti-GITR antibody; also called humanized LYV396 antibody (LYV396_VH-1/IgG1mut, LYV396_VL-1/kappa)
[1]
  EC50 (read off the curve): ~0.7 µg/mL

B3: Ly748 (bispecific antibody, human IgG1, kappa)
heavy: QVQLVQSGAEVKKPGASVKVSCKASGYTFAGFEMHWVRQAPGQGLEWMGAIDPKTGGTDYNQKFKDRVTMTRDTSISTAYMELSRLRSDDTAVYYCARDLGYFDVWGQGTLVTVSSASTKGPSVFPLAPSSKSTSGGTAALGCLVKDYFPEPVTVSWNSGALTSGVHTFPAVLQSSGLYSLSSVVTVPSSSLGTQTYICNVNHKPSNTKVDKKVEPKSCDKTHTCPPCPAPELLGPSVFLFPPKPKDTLMISRTPEVTCVVVDVSHEDPEVKFNWYVDGVEVHNAKTKPREEQYNSTYRVVSVLTVLHQDWLNGKEYKCKVSNKALPAPIEKTISKAKGQPREPQVYTLPPSREEMTKNQVSLTCLVKGFYPSDIAVEWESNGQPENNYKTTPPVLDSDGSFFLYSKLTVDKSRWQQGNVFSCSVMHEALHNHYTQKSLSLSPGK
light: DIQMTQSPSSLSASVGDRVTITCRASQDIRSNLNWYQQKPGGAVKLLIYYTSRLHSGVPSRFSGSGSGTDYTLTISSLQPEDFATYFCQQSEKLPRTFGGGTKVEIRRTVAAPSVFIFPPSDEQLKSGTASVVCLLNNFYPREAKVQWKVDNALQSGNSQESVTEQDSKDSTYSLSSTLTLSKADYEKHKVYACEVTHQGLSSPVTKSFNRGECGGGGSGGGGSGGGGSGGGGSDTVLTQSPATLSLSPGERATLSCRASKSVRTGMHWYQQKPGQAPRLLVYGASNLESGIPARFSGSGSGTDFTLTISSLEPEDFATYFCHQSWNHFTFGQGTKLEIKGGGGSGGGGSGGGGSGGGGSQVQLQESGPGLVKPSETLSLTCTVSGFSLTSYNVHWIRQPPGKGLEWIGVIWSGVRTDYNSVLKSRVTISVDTSKNQFSLKLSSVTAADTAVYYCARGTYDANYHDVMDAWGQGTMVTVSS
notes: Anti-GITR/CD137: Ly1630 heavy chain; Ly1630 light chain fused to TM677 scFv (VL-VH)
[1]
  binding result: binds

B4: Ly752 (bispecific antibody, human IgG1, kappa)
heavy: QVQLQESGPGLVKPSETLSLTCTVSGFSLTSYNVHWIRQPPGKGLEWIGVIWSGVRTDYNSVLKSRVTISVDTSKNQFSLKLSSVTAADTAVYYCARGTYDANYHDVMDAWGQGTMVTVSSASTKGPSVFPLAPSSKSTSGGTAALGCLVKDYFPEPVTVSWNSGALTSGVHTFPAVLQSSGLYSLSSVVTVPSSSLGTQTYICNVNHKPSNTKVDKKVEPKSCDKTHTCPPCPAPELLGPSVFLFPPKPKDTLMISRTPEVTCVVVDVSHEDPEVKFNWYVDGVEVHNAKTKPREEQYNSTYRVVSVLTVLHQDWLNGKEYKCKVSNKALPAPIEKTISKAKGQPREPQVYTLPPSREEMTKNQVSLTCLVKGFYPSDIAVEWESNGQPENNYKTTPPVLDSDGSFFLYSKLTVDKSRWQQGNVFSCSVMHEALHNHYTQKSLSLSPGK
light: DTVLTQSPATLSLSPGERATLSCRASKSVRTGMHWYQQKPGQAPRLLVYGASNLESGIPARFSGSGSGTDFTLTISSLEPEDFATYFCHQSWNHFTFGQGTKLEIKRTVAAPSVFIFPPSDEQLKSGTASVVCLLNNFYPREAKVQWKVDNALQSGNSQESVTEQDSKDSTYSLSSTLTLSKADYEKHKVYACEVTHQGLSSPVTKSFNRGECGGGGSGGGGSGGGGSGGGGSDIQMTQSPSSLSASVGDRVTITCRASQDIRSNLNWYQQKPGGAVKLLIYYTSRLHSGVPSRFSGSGSGTDYTLTISSLQPEDFATYFCQQSEKLPRTFGGGTKVEIRGGGGSGGGGSGGGGSGGGGSQVQLVQSGAEVKKPGASVKVSCKASGYTFAGFEMHWVRQAPGQGLEWMGAIDPKTGGTDYNQKFKDRVTMTRDTSISTAYMELSRLRSDDTAVYYCARDLGYFDVWGQGTLVTVSS
notes: Anti-GITR/CD137: TM677-derived heavy chain; TM677 light chain fused to Ly1630 scFv (VL-VH)
[2]
  EC50 (read off the curve): ~0.4 µg/mL

B5: Ly753 (bispecific antibody, human IgG1, kappa)
heavy: QVQLQESGPGLVKPSETLSLTCTVSGFSLTSYNVHWIRQPPGKGLEWIGVIWSGVRTDYNSVLKSRVTISVDTSKNQFSLKLSSVTAADTAVYYCARGTYDANYHDVMDAWGQGTMVTVSSASTKGPSVFPLAPSSKSTSGGTAALGCLVKDYFPEPVTVSWNSGALTSGVHTFPAVLQSSGLYSLSSVVTVPSSSLGTQTYICNVNHKPSNTKVDKKVEPKSCDKTHTCPPCPAPELLGPSVFLFPPKPKDTLMISRTPEVTCVVVDVSHEDPEVKFNWYVDGVEVHNAKTKPREEQYNSTYRVVSVLTVLHQDWLNGKEYKCKVSNKALPAPIEKTISKAKGQPREPQVYTLPPSREEMTKNQVSLTCLVKGFYPSDIAVEWESNGQPENNYKTTPPVLDSDGSFFLYSKLTVDKSRWQQGNVFSCSVMHEALHNHYTQKSLSLSPGK
light: DTVLTQSPATLSLSPGERATLSCRASKSVRTGMHWYQQKPGQAPRLLVYGASNLESGIPARFSGSGSGTDFTLTISSLEPEDFATYFCHQSWNHFTFGQGTKLEIKRTVAAPSVFIFPPSDEQLKSGTASVVCLLNNFYPREAKVQWKVDNALQSGNSQESVTEQDSKDSTYSLSSTLTLSKADYEKHKVYACEVTHQGLSSPVTKSFNRGECGGGGSGGGGSGGGGSGGGGSQVQLVQSGAEVKKPGASVKVSCKASGYTFAGFEMHWVRQAPGQGLEWMGAIDPKTGGTDYNQKFKDRVTMTRDTSISTAYMELSRLRSDDTAVYYCARDLGYFDVWGQGTLVTVSSGGGGSGGGGSGGGGSGGGGSDIQMTQSPSSLSASVGDRVTITCRASQDIRSNLNWYQQKPGGAVKLLIYYTSRLHSGVPSRFSGSGSGTDYTLTISSLQPEDFATYFCQQSEKLPRTFGGGTKVEIR
notes: Anti-GITR/CD137: TM677-derived heavy chain; TM677 light chain fused to Ly1630 scFv (VH-VL)
[2]
  EC50 (read off the curve): ~0.7 µg/mL

B6: Ly754 (bispecific antibody, human IgG1, kappa)
heavy: QVQLVQSGAEVKKPGASVKVSCKASGYTFAGFEMHWVRQAPGQGLEWMGAIDPKTGGTDYNQKFKDRVTMTRDTSISTAYMELSRLRSDDTAVYYCARDLGYFDVWGQGTLVTVSSASTKGPSVFPLAPSSKSTSGGTAALGCLVKDYFPEPVTVSWNSGALTSGVHTFPAVLQSSGLYSLSSVVTVPSSSLGTQTYICNVNHKPSNTKVDKKVEPKSCDKTHTCPPCPAPELLGPSVFLFPPKPKDTLMISRTPEVTCVVVDVSHEDPEVKFNWYVDGVEVHNAKTKPREEQYNSTYRVVSVLTVLHQDWLNGKEYKCKVSNKALPAPIEKTISKAKGQPREPQVYTLPPSREEMTKNQVSLTCLVKGFYPSDIAVEWESNGQPENNYKTTPPVLDSDGSFFLYSKLTVDKSRWQQGNVFSCSVMHEALHNHYTQKSLSLSPGGGGGSGGGGSGGGGSGGGGSEIVLTQSPATLSLSPGERATLSCRASKSVRTGMHWYQQKPGQAPRLLIYGASNLESGIPARFSGSGSGTDFTLTISSLEPEDFAVYYCQQSWNHFTFGQGTKLEIKGGGGSGGGGSGGGGSGGGGSQVQLQESGPGLVKPSETLSLTCTVSGFSLTSYNVHWIRQPPGKGLEWIGVIWSGVRTDYNSVLKPRVTISVDTSKNQFSLKLSSVTAADTAVYYCARGTYDDNYHDVMDAWGQGTLVTVSS
light: DIQMTQSPSSLSASVGDRVTITCRASQDIRSNLNWYQQKPGGAVKLLIYYTSRLHSGVPSRFSGSGSGTDYTLTISSLQPEDFATYFCQQSEKLPRTFGGGTKVEIRRTVAAPSVFIFPPSDEQLKSGTASVVCLLNNFYPREAKVQWKVDNALQSGNSQESVTEQDSKDSTYSLSSTLTLSKADYEKHKVYACEVTHQGLSSPVTKSFNRGEC
notes: Anti-GITR/CD137: Ly1630 heavy chain fused to TM685 scFv (VL-VH); Ly1630 light chain
[2]
  EC50 (read off the curve): ~0.2 µg/mL

B7: Ly745 (bispecific antibody, human IgG1, kappa)
heavy: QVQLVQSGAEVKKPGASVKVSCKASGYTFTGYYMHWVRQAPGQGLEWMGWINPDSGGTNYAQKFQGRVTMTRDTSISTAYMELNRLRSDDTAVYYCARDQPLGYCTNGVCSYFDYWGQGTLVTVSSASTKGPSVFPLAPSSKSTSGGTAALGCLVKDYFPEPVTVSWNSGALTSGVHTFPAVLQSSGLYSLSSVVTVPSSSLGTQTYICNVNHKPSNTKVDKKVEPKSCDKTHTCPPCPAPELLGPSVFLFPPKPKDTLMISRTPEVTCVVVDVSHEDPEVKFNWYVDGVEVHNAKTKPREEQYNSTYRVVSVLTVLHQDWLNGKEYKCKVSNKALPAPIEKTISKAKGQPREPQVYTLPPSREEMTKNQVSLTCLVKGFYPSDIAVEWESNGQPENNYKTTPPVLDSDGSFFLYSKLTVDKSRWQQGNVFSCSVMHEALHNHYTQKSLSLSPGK
light: DIQMTQSPSSVSASVGDRVTITCRASQGIYSWLAWYQQKPGKAPNLLIYTASTLQSGVPSRFSGSGSGTDFTLTISSLQPEDFATYYCQQANIFPLTFGGGTKVEIKRTVAAPSVFIFPPSDEQLKSGTASVVCLLNNFYPREAKVQWKVDNALQSGNSQESVTEQDSKDSTYSLSSTLTLSKADYEKHKVYACEVTHQGLSSPVTKSFNRGECGGGGSGGGGSGGGGSGGGGSQVQLVQSGAEVKKPGASVKVSCKASGYTFAGFEMHWVRQAPGQGLEWMGAIDPKTGGTDYNQKFKDRVTMTRDTSISTAYMELSRLRSDDTAVYYCARDLGYFDVWGQGTLVTVSSGGGGSGGGGSGGGGSGGGGSDIQMTQSPSSLSASVGDRVTITCRASQDIRSNLNWYQQKPGGAVKLLIYYTSRLHSGVPSRFSGSGSGTDYTLTISSLQPEDFATYFCQQSEKLPRTFGGGTKVEIR
notes: Anti-CD40/CD137: Ly253-derived heavy chain; Ly253 light chain fused to Ly1630 scFv (VH-VL)
[3]
  binding result: binds
[4]
  EC50 (read off the curve): ~0.2 µg/mL
